According to the DeepSol protein solubility set:

Experiment: soluble on expression in E. coli; label from the status in PepcDB or PDB records

| Sequence | soluble on expression in E. coli |
| --- | --- |
| MSSEIAYSNTNTNTENENRNTGAGVDVNTNANANANATANATANATANATAELNLPTVDEQRQYKVQLLLHINSILLARVIQMNNSLQNNLQNNINNSNNNNIIRIQQLISQFLKRVHANLQCISQINQGVPSAKPLILTPPQLANQQQPPQDILSKLYLLLARVFEIW | not soluble |
| MSLTLPDFRLIRLLPLASLVLTACTLPGHKGPGKSPDSPQWRQHQQEVRHLNQYQTRGAFAYISDDQKVYARFFWQQTGQDRYRLLLTNPLGSTELELNAQPGNVQLVDNKGQRYTADDAEEMIGKLTGMPIPLNSLRQWILGLPGDATDYKLDDQYRLSEVNYRQDGKNWKVVYGGYDSKTQPAMPANMELSDGSQRIKLKMDNWIVKEGGSHHHHHH | soluble |
| MGSDKIHHHHHHMNSTTKSKEFEQHYSGTLSDYVTAIAWSPQGKTLAATSAAGEVVLWNDGELTTLQTGNGKSVDCLAFSPDGKFLAVGGQDGQVKIWQNTELIATLENAPAWVDKLAWNYTSNQLAFSLGRYVQVWDVDTHEIVVTLNFDNSSVLGIDWRIDGQYLAISGYKGVKIWHSQNWDEEPYSLDMTTVSLAMAWSPDGKFLASGNMDRSVTVLEWNNPDPWVMRGFPGKIRQLAWSEAMTKVGAPILASSSVEGIVVWEKLEDDTLGWEARVLTNHVGTINAIAFAPKSFLLASAAADGWLCLWNQAKEVSQIITGVSGGFSTLAWHPQGKLLAAGGEQGELVIWSKVLRGQGFGRS | not soluble |
| MGSDKIHHHHHHMFRHFRSRFGTPAWAGVNEDDFLLVRSWFGHGRHHGRDRDKHFGNEMFGRGWGDEHRTRRGDIKFILLELLSEHPSHGYDLIKEMETRYGGFRRLSPGSVYPTLQLLEEGGYLKSAQEGGKRIYTITDEGRKLLAERAQQETSDTPWDTVKSFVTGKPQEFIELRNAATELAAVVVQVARSGNVERINRVRELLEQVKREIYTILAEK | not soluble |
| MGSSHHHHHHSSGLVPRGSHMKARELDVPGAWEITPTIHVDSRGLFFEWLTDHGFRAFAGHSLDVRQVNCSVSSAGVLRGLHFAQLPPSQAKYVTCVSGSVFDVVVDIREGSPTFGRWDSVLLDDQDRRTIYVSEGLAHGFLALQDNSTVMYLCSAEYNPQREHTICATDPTLAVDWPLVDGAAPSLSDRDAAAPSFEDVRASGLLPRWEQTQRFIGEMRGTGSV | soluble |
| MGSDKIHHHHHHILLDYVESLVLSSVFPKRDFLSPTSNYLNGLKEVLYYQIFPERFANGDPSNDPNGSQSWDVDPAYANLGGDGFFGGDLKGIIDHFDHILELGVEAIYLNPIFESPSSHKYDTEDYLKIDDNFGNDYVFEEFISLAEDSGIKLILDGVFNHTGYDFFAFKDLREREETSPYKDWYFVKRFPIRKIQDRAMTYVGWNGYAYMPKVNSLNEGWQAYVERLVRKYNLEGIGGWRLDVATEVDPLFWSGFFRPLVKSLEKDMILVAEFWGDARSLLRGKTFDSAMNYPFKEAVIEYVFRAGNSAAKFAAMTNLYLNAYPPQTLHSLWNILDSHDTERILTLAFNQVDLLKIAVAIQMTFIGSPVIYYGDEVGMKGGKDPENRAPMLWDEEKWNWEIYDFYKTLIDLRRTHESIKDGEYEVLTAEGPVFSFRRWKDSEEVIVVINPSRENAFFNPEFEGEFCEYLSGRSISFFENKAEITPLTVWILVQED | not soluble |
| MSLDKPRLQFSIREQVQQLLGGLAGLKNYQVPSKETIADNAYLKQMGVALDVLTKEVEKLKSDDGVSAEAMGDYLYRQVQWVNNIVPTQMDLNRLFATMNTAGIQLEQADILKAKLFKHIHTDKAQYDAMWVACEHLENYFERNVRKVFPNADWYHIEPEHLASFDAERFAAKDETSEALSGLSIAELASQVKASSIPDNTEQEKFETYDLDVETVYCRPIIKFPLLLIHAYRVYLALNDHNDIEPRLHSDRLLEIFDPLINGDEQSVKLFIETLWQVRYQFDRWVVKWVERDDATDAQLGLTYQSRSKSNDTYYINRTQKELTDIVLLQSVRNFTGERSAQYWLTPFLSGLIRSSIKQDSVALELLENIDNKMSLSVDTQKEASFALAEGIEPNCQSWQSQSTYFAKSLGTSFEHYWFQKLEYLIWKKMKASESSLPSEELNKFKKYRITSKNSVEHVHPQNDEYNSRLDCETLNSFGNLVLLSPGENSSYSNQDVDKKRIDFERKSHFDALKLREIFGVKGQGLWGKQQIDNHLEDMMAVFAQHYKEGHHHHHH | soluble |
| MKNSLCNSVSSVVKKLLEYGEDGTPVYVNELTALNQELRNLCADLLLQKGESPEEEAEILVTLFKGYDTMLFNFSSENEQVIQELLDRSMTVLEKLPASVLKCQLLLECFEQTGDEELIREAKKNIERVI | soluble |
| MGSDKIHHHHHHMQFCSSDEFASKTMIKWPWKVQESAHQTALPWQEALSIPLLTCLTEQEQSKLVTLAERFLQQKRLVPLQGFELDSLRSCRIALLFCLPVLELGLEWLDGFHEVLIYPAPFVVDDEWEDDIGLVHNQRIVQSGQSWQQGPIVLNWLDIQDSFDASGFNLIIHEVAHKLDTRNGDRASGVPFIPLREVAGWEHDLHAAMNNIQEEIELVGENAASIDAYAASDPAECFAVLSEYFFSAPELFAPRFPSLWQRFCQFYQQDPLQRLHHANDTDSFSATNVH | not soluble |
| SAGVRGLRFVERFGDNTASLIKNAILLDQQKVEVFNIRFKSSRDFTIQIKLNAKGNYKKSEVEKYKSQIGVQDNELGDKEEGTLEADLIFTYTPPASNLFSKSNFDKLTKSINFNTNLKLEMVGKDEVMRKILNSSAFTNNLASVNYPNQAVNLLPYVLYSIL | not soluble |
| PVPRTCWIGPWKKNLAQGKITLKLINWIKKAELKNQPVLIFFPEIEAMNQFAEALVNYDFTRPVTVHSADQLRKEKVEWLREGKIKLLLTTTILERGVTFKDVQVAVFGSEGRIFTEAALVQIAGRAGRKLTHPTGDVCFFHYGKTTEMNRAITHIKKMNQLGFKEG | soluble |
| MKKLKMASCALVAGLMFSGLTPNAFAEDKISDVKSQINTQNDTLHKQQQERDELQKQMNDLNKTIQGLDKSVQENAAKLDETTKKVADTEQLIEKKNKDIAELQTKIAKREELLRKRLVALQEQPNTNVVTEVLVNSKNVADLVDRLTSVSKILESDEDIMKTQQEDQANVKKDVETVKTKQKELKEAQAQIETAKKELDAEKAKKATAVNDLSGKMDTVVTSMTSTESQLKDLEKQALQLQRIAEQEAQEKAAQEAAAQKQAEQAAKDAQAQPAQAAPAQPAAPANNGGQAQKEEPKKEEPKKEAPKKEDKKPEPTPGPAPAPGVIGKAQQYLGLPYVWGSASPSNGGFDCSGFISYVFGVGRQDVNGYWHSVSKVSSPQPGDLVFFQNTYKNGPSHIGIYVGNGQMIHAGDKGIAYSSLSSSYNQKHFLGYGRF | not soluble |
| MFDAKKLEQIAKQIHEAMPQPVKELGADVEQKVRQVIQGQLNKLDVVSREEFDVQTQVLLRTRQKLTELEQKMAELEAKLADK | not soluble |
| LYVFDMDETLINADCAMIWNAFLVEKGIATQPNFIEEDQRLMALYAEGKMDMEDYLEFCMAPLADMPIAHVLMLVEECVEHHILPKQFEQSKTLIAQLDRDDIDMVIISASVTFLVEAVGRRLGIPVALGIDLVEKHGSYSAEIAGVPSYREGKVIRLKAWLDAQPESYSEVHFYTDSINDLPLCEYADYAYLVNPCPQLKARAD | not soluble |
| MSLDVLGHVFEYFLGEFALAEGKQGGQFYTPKCVVELLVTMLEPYKGRVFDPCCGSGGMFVQSEEFVKSHQGRLDDISIYGQESNQTTYKLAKMNLAIRKIESSQVIWNNEGSFLNDAHKDLKADFIIANPPFNDSDWSGELLENDGRWKYGVPPASNANYAWIQHFLYHLSPNGGVAGFVLAKGALTSNTTNEAAIRKALIEDDLIDCIVNLPAKLFLNTGIPASLWFIRRQKLPKTVKKTLFIDARDLGTRINRRNKTLNKDDINQIANIYKAWKNGTDYEDIKGFCKSVSIDEIRELSYVLTPGRYVGLADSDDEFDFDTRFNELLAKLKSQIKTEQELSEIILKNLEKIKEGHHHHHH | not soluble |
| MIKRNLLVIGLAVMLSACGFQLRGTGATELSVKEMDVSARNAYGPTVLQLREVLERSGVNVHAGAPYRLVLTNEQERERSATYNSGNRTAEYELTTKLDYSILGLNNLELMSDKLEVRKVYVRDGSNITGSEQEAKRAREEMRRDLVNAMVVRLQMLSPPQLDELQRKADERAQAEAAALEAARRQQAETPQQSPLEVPGN | not soluble |
